Data on six molecules can be found in US20110135636A1 (SYMPHOGEN A S, published 2011).

By EC50 (read off the curve) is commonly meant the concentration that produces a half-maximal response. By EC50 is commonly meant the concentration giving half of the maximal effect. Low values mean an effect from little substance, high ones a need for much substance. As usually defined, the % inhibition is the drop in the measured response relative to a control, in per cent.

The labels stand for the following.
B1: antibody 1030 (antibody, human IgG1, kappa, V domains shown)
VH: EVQLVESGGGLVKPGGSLKLSCAASGFTFSSYALSWVRQTPERRLEWVASISGVGSTYFPDSVKGRFTMSRDNARNILYLQMSSLRSEDTAMYYCARGSDGYFYAMDYWGQGTSVTVSS
VL: DIVLTQSPASLAVSLGQRATISCRASKSVSTSGYSFMHWYQLKPGQPPKLLIYLASNLESGVPARFSGSGSGTDFTLNIHPVEEEDAATYYCQHSREFPLTFGGGTKLEIKR
notes: Chimeric IgG1 kappa
B2: antibody 1261 (antibody, human IgG1, kappa, V domains shown)
VH: EVQLVESGGGLVKPGGSLKLSCAVSGFTFSSYVMSWVRQTPEKRLEWVATITSGGRNIYYLDSVKGRFTISRDNAKNTLYLQMSSLRSEDTAMYYCARHEDYRYDGYYAMDYWGQGTSVTVSS
VL: QIVLTQSPAIMSASPGEKVTITCSASSSVSYMHWFQQKPGTSPKLWIYSTSNLASGVPARFSGSGSGTSYSLTISRMEAEDAATYYCQQRSSYPYTFGGGTKLELKR
notes: Chimeric IgG1 kappa
B3: antibody 992 (antibody, human IgG1, kappa, V domains shown)
VH: EVQLQQPGSELVRPGASVKLSCKASGYTFTSYWMHWVKQRPGQGLEWIGNIYPGSRSTNYDEKFKSKATLTVDTSSSTAYMQLSSLTSEDSAVYYCTRNGDYYVSSGDAMDYWGQGTSVTVSS
VL: DIQMTQTTSSLSASLGDRVTISCRTSQDIGNYLNWYQQKPDGTVKLLIYYTSRLHSGVPSRFSGSGSGTDFSLTINNVEQEDVATYFCQHYNTVPPTFGGGTKLEIKR
notes: Chimeric mouse/human IgG1 kappa; the VL entry includes the human kappa constant region
B4: antibody 1024 (antibody, human IgG1, kappa, V domains shown)
VH: QVQLQQPGAELVEPGGSVKLSCKASGYTFTSHWMHWVKQRPGQGLEWIGEINPSSGRNNYNEKFKSKATLTVDKSSSTAYMQFSSLTSEDSAVYYCVRYYGYDEAMDYWGQGTSVTVSS
VL: DIVMTQAAFSNPVTLGTSASISCRSSKSLLHSNGITYLYWYLQKPGQSPQLLIYQMSNLASGVPDRFSSSGSGTDFTLRISRVEAEDVGVYYCAQNLELPYTFGGGTKLEIKR
notes: Chimeric IgG1 kappa
B5: antibody 1347 (antibody, human IgG1, kappa, V domains shown)
VH: QVQLKESGPGLVAPSQSLSITCTVSGFSLTGHGVNWVRQPPGKGLEWLGMIWGDGSTDYNSTLKSRLSISKDNSKSQVFLKMNSLQTDDTARYYCARGYGYLYYFDYWGQGTTLTVSS
VL: ENVLTQSPAIMSASPGEKVTMTCRASSSVSSSYLHWYQQKSGASPKLWIYSTSNLASGVPARFSGSGSGTSYSLTVNSVETEDAATYYCHQYSGFPFTFGSGTKLELKR
notes: Chimeric IgG1 kappa
B6: antibody 1320 (antibody, human IgG1, kappa, V domains shown)
VH: QVQLQQPGAELVKPGASMKLSCKASGYTFTNYWMHWVKQRPGQGLEWIGEINPSNGRTNYNEKFKSKATLTVDKSSSTAYMQLSSLTSEDSGVYYCAKGGNYYDYDWDYWGQGTTLTVSS
VL: DIQMTQTTSSLSASLGDRVTISCSASQDISNYLNWYQQKPDGTVKLLIYHTSTLHSGVPSRFSGSGSGTDYSLTISNLEPEDIATYYCQQYSKLPWTFGGGTKLEIKR
notes: Chimeric IgG1 kappa

For the first experiment, the target named is T1, recombinant human EGFR extracellular domain with 6xHis (human, UniProt P00533 25-645).
T1 construct: In-house produced; also called 6xHis EGFR ECD; soluble human EGFR ECD; not shown: 6xHis tag
Briefly: SPR, reference cycle of the run with mix N=6-1. As for the experimental part: (§1) SPR analysis was performed on a Biacore 3000 machine containing four flow cells. A CM5 Biacore chip was conjugated with 10,000 Resonance units (Ru) polyclonal anti-His antibody to flow cells 1-4 according to the manufacturer's instructions. […] Immediately after antigen injection the maximal binding of the Anti-EGFR mAb without competition was established in each flow cell during a reference run. Briefly 5 μl antibody at a concentration of 40 μg/ml was injected over all flow cells with captured EGFR followed by stripping of the antibody/antigen complex with a low pH acid wash (10 sec. contact time with 10 mM Glycine-HCl, pH2). After the determination of Anti-EGFR antibody maximal binding to each flow cell, a competition run was performed during the same Biacore cycle. Flow cells were first saturated with EGFR ECD antigen followed by injection of different reference antibodies or Anti-EGFR antibodies into separate flow cells using the same antigen saturating conditions as outlined above. This step was immediately followed by a second injection of Anti-EGFR antibody over the flow cell saturated with EGFR antigen and competition antibody to minimize the dissociation of either antigen or blocking antibody. Then the antibody/antigen complexes were stripped off with a low pH acid wash (10 sec. contact time with 10 mM Glycine-HCl, pH 2) and the whole cycle beginning with the reference run was repeated with a new Anti-EGFR antibody. The degree of inhibition of tested Anti-EGFR antibodies were determined by comparing the Ru max value of the individual Anti-EGFR antibody before and after competition by introduction of report points recorded two seconds before and after injection of each sample.
(SPR reads the build-up and loss of mass on a sensor chip optically.)
Regarding B1, the Rumax reference cycle was 74 Ru.
As to B2, the Rumax reference cycle was found to be 139 Ru.
On to B3, for which the Rumax reference cycle was determined as 71 Ru.
For B4, the Rumax reference cycle worked out at 122 Ru.
As for B5, the Rumax reference cycle was 107 Ru.

In a further experiment the target is T2, full length human EGFR expressed on the cell surface (human, UniProt P00533 25-1210).
T2 construct: whole, on cells; also called EGFR on A431-NS cells; EGFR on HN5 cells
Briefly: FACS on CHO cells transfected with full length Human EGFR. The method, then: Bound antibody was detected with a PE labelled goat F(ab′)₂ anti-human IgG FC. Gating was performed on uniform cells (SCC/FCS properties) expressing EGFR. Binding is expressed as % maximal antibody binding at 1 nM concentration.
Briefly quantitative FACS analysis was performed on a BD FACS array Bioanalyzer System to determine the number of EGFR molecules expressed on the surface of CHO cells transfected with either Human or Cynomolgus full length EGFR. […] Antibodies were incubated with cells for 14 hours on a shaker, to promote full antigen saturation at all antibody concentrations tested, while FACS buffer was added 0.02% NaN₃ and temperature kept at 4° C. to prevent receptor internalization. After incubation, cells were pelleted at 1200 RPM for 5 min at 4° C. and resuspended in 200 ul FACS buffer. Next cells were stained with a secondary Goat F(ab′)₂ anti-Human IgG FcGamma PE diluted 1:500 and incubated for 30 min at 4° C. on a shaker. Finally cells were washed twice in FACS buffer and analyzed on a BD FACS array Bioanalyzer System with gating on EGFR expressing CHO cells displaying uniform forward/side scatter properties.
B6: the “EC50 (read off the curve)” value was approximately 0.01 nM.
For the molecule B3, the “EC50 (read off the curve)” value is approximately 0.01 nM.
Turning to B4, the “EC50 (read off the curve)” value is approximately 0.01 nM.

The target of a further experiment is T2, full length human EGFR expressed on the …. Briefly: cell ELISA, IgG titrated on unfixed A431-NS cells; given as ED50. The method, then:
Cell ELISA: The ELISA was performed essentially as described in example 15 with modifications. Cells were left unfixed to allow conformational EGFR flexibility after antibody additions. Briefly, 10,000 A431-NS cells were grown in 96 well ELISA plates containing DMEM with added 0.5% FCS and 1% P/S at 37° C., 5% CO₂ overnight. […] 25 μl DMEM containing 1% BSA was added to wells used for testing of IgG antibodies without added Fab fragments. […] Next, wells were washed four times with PBS and 50 μl of a secondary monoclonal Mouse-anti-Human (Fc specific) HRP conjugate diluted 1:5000 in DMEM containing 1% BSA was added and incubated on ice for 30 min. Finally wells were washed four times with PBS and plates developed by adding 50 μl/well TMB substrate and read at 620 nm every 5-15-30 min. After incubation with substrate the reaction was stopped by addition of 1 M H₂SO₄ and absorbance read at 450 nm. The functional affinity expressed as ED50 values were calculated by subtraction of the average background binding with secondary reagent only, followed by normalization of the binding curves by plotting % maximal binding relative to each antibody tested.
Investigations of antibody induced binding enhancements were determined by concurrent ELISA binding studies, employing same secondary antibody reagent and incubation times.
(ELISA stands for enzyme-linked immunosorbent assay.)
B1 registered an EC50 of 2.2 nM.
On to B3, for which the EC50 was 0.6 nM.
With B4, the response was half-maximal at 1 nM (EC50).

Another experiment has the same target. As to the kind of experiment: cell ELISA, IgG titrated on paraformaldehyde-fixed A431-NS cells; given as ED50. The method, then:
Cell ELISA: The relative binding affinities defined as the molar concentration giving the half maximal OD (ED50) were determined by antibody titrations on A431-NS cells. Briefly, 10,000 A431-NS cells were grown in 96 well ELISA plates containing DMEM with added 0.5% FCS and 1% P/S at 37° C., 5% CO₂ overnight. […] Then 50 μl of a secondary Goat-anti-Human (Fab specific) HRP conjugate diluted 1:5000 in DMEM containing 1% BSA was added and incubated on ice for 30 min. Finally wells were washed four times with PBS and plates developed by adding 50 μl/well TMB Plus substrate and read at 620 nm every 5-15-30 min. After incubation with substrate the reaction was stopped by addition of 1 M H₂SO₄ and absorbance read at 450 nm. The functional affinity expressed as ED50 values were calculated by subtraction of the average background binding with secondary reagent only, followed by normalization of the binding curves by plotting % maximal binding relative to each antibody tested.
On to B1, for which the concentration giving a half-maximal response (EC50) turned out to be 1.5 nM.
On the same count and under the same terms, in the case of B3 it was 0.3 nM.
In turn, B4 returned an EC50 of 0.3 nM.

For a further experiment, the target named is T1, recombinant human EGFR extracellular …. Briefly: SPR competition, EGFR ECD first saturated with mix N=6 1261+1347+992+1024+1030+1361. The method, then:
as §1
As to B1, the “% inhibition” value was 87% and the Rumax competition cycle came to 12 Ru.
Regarding B2, the “% inhibition” value was 95% and the Rumax competition cycle stood at 7 Ru.
On to B3, for which the “% inhibition” value turned out to be 116% and the Rumax competition cycle was -14 Ru.
For the molecule B4, the “% inhibition” value is 113% and the Rumax competition cycle is -14 Ru.
Turning to B5, the “% inhibition” value is 80% and the Rumax competition cycle turned out to be 19 Ru.
